This note sets out measurements from patent US20230040568A1 (ALBERT EINSTEIN COLLEGE OF MEDICINE, published 2023).

Experiment [1] addresses T1, KIR3DL1 expressed on 3T3 cells (UniProt P43629 22-444, limits assumed).
T1 construct: whole, on cells
Put plainly: FACS, HHLA2-Ig staining of 3T3 cells expressing KIR3DL1 (FIG. 2A). The text has this:
(§1) FIG. 2A depicts histograms of 3T3 cell lines expressing KIR3DL1, KIR3DL2, or KIR3DL3 stained with HHLA2-Ig fusion polypeptide (open histograms) or control Ig (shaded histograms). FIG. 2B depicts a plot showing results of an intercellular conjugate assay that indicate 3T3 cell line expressing HHLA2 bound to 3T3 cell line expressing KIR3DL3, but not the control 3T3 cell line. FIG. 2C depicts histograms of a 3T3 cell line expressing HHLA2 bound by the DO domain (red) and the whole extracellular portion (red) of KIR3DL3.
(§2) Subsequent studies reported that HHLA2 is over-expressed in various types of human cancers (Cheng 2018; Cheng 2017; Koirala 2016; Janakiram 2015). To test the binding of HHLA2 to KIR3DL1, KIR3DL2, and KIR3DL3, 3T3 cell lines stable expressing cell surface KIR3DL1, KIR3DL2, or KIR3DL3 were generated.
A general note: In flow cytometry, cells or beads pass a laser one at a time.

The target of experiment [2] is T2, KIR3DL2 expressed on 3T3 cells (UniProt P43630 22-455, limits assumed).
T2 construct: whole, on cells
Nature of the experiment: FACS, HHLA2-Ig staining of 3T3 cells expressing KIR3DL2 (FIG. 2A).
Description: as §1, §2

The target in experiment [3] is T3, KIR3DL3 expressed on cells (3T3 cell line expressing KIR3DL3); KIR3DL3+ NK92 cells; primary KIR3DL3+ NK cells … (human, UniProt Q8N743 26-410).
T3 construct: also called KIR3DL3-expressing 3T3 cells; KIR3DL3 WT
Nature of the experiment: FACS, HHLA2-Ig staining of 3T3 cells expressing KIR3DL3 (FIG. 2A).
Description: as §1, §2

T3 sequence (Q8N743 26-410 H321N): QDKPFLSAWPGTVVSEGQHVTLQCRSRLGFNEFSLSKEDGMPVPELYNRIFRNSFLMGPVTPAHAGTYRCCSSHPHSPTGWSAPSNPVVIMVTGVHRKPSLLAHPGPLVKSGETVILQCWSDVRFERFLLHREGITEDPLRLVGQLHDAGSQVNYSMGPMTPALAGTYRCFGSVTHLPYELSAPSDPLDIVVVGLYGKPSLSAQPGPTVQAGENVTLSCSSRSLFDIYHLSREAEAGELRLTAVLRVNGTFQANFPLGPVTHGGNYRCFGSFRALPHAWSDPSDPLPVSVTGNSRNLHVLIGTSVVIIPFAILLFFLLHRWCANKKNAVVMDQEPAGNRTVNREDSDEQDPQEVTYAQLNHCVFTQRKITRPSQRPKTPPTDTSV
T1 sequence (P43629 22-444 limits assumed): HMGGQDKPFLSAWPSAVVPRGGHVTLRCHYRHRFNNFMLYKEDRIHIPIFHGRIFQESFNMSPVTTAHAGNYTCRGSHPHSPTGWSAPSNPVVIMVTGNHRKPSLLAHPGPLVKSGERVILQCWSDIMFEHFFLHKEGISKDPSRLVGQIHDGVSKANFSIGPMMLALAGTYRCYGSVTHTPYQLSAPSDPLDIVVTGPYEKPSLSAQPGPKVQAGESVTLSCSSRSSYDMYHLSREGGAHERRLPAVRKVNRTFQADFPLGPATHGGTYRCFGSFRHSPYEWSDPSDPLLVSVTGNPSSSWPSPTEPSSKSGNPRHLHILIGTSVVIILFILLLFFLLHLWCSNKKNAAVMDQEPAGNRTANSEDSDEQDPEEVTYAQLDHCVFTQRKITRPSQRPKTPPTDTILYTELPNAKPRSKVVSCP
T2 sequence (P43630 22-455 limits assumed): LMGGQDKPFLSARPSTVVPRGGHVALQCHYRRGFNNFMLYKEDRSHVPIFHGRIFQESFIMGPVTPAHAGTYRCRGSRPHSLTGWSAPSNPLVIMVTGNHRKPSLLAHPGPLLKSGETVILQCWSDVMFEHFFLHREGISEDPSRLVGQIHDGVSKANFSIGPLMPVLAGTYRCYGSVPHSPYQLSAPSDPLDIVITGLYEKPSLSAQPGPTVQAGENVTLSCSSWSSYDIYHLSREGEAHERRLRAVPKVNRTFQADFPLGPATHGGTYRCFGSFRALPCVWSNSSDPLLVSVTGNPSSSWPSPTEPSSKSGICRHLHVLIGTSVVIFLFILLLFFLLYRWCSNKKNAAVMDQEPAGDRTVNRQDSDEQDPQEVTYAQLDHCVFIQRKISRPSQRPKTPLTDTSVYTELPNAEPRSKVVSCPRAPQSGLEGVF

B1: HHLA2-Ig fusion polypeptide (Fc fusion, UniProt Q9UM44 23-344, looked up)
chain: IFPLAFFIYVPMNEQIVIGRLDEDIILPSSFERGSEVVIHWKYQDSYKVHSYYKGSDHLESQDPRYANRTSLFYNEIQNGNASLFFRRVSLLDEGIYTCYVGTAIQVITNKVVLKVGVFLTPVMKYEKRNTNSFLICSVLSVYPRPIITWKMDNTPISENNMEETGSLDSFSINSPLNITGSNSSYECTIENSLLKQTWTGRWTMKDGLHKMQSEHVSLSCQPVNDYFSPNQDFKVTWSRMKSGTFSVLAYYLSSSQNTIINESRFSWNKELINQSDFSMNLMDLNLSDSGEYLCNISSDEYTLLTIHTVHVEPSQETASHN
notes: also called HHLA2 protein; not shown: Ig part
Consider B1, for which the binding result is recorded as “no binding” in experiment [1], “no binding” in experiment [2] and “binds” in experiment [3].
